Consider 1 molecule from paper PMC11246235.

In this assay the target is T1, CST (Ctc1/Stn1/Ten1), His6-MBP tag of Ctc1 cleaved off (human), Q2NKJ3.
T1 chain 1: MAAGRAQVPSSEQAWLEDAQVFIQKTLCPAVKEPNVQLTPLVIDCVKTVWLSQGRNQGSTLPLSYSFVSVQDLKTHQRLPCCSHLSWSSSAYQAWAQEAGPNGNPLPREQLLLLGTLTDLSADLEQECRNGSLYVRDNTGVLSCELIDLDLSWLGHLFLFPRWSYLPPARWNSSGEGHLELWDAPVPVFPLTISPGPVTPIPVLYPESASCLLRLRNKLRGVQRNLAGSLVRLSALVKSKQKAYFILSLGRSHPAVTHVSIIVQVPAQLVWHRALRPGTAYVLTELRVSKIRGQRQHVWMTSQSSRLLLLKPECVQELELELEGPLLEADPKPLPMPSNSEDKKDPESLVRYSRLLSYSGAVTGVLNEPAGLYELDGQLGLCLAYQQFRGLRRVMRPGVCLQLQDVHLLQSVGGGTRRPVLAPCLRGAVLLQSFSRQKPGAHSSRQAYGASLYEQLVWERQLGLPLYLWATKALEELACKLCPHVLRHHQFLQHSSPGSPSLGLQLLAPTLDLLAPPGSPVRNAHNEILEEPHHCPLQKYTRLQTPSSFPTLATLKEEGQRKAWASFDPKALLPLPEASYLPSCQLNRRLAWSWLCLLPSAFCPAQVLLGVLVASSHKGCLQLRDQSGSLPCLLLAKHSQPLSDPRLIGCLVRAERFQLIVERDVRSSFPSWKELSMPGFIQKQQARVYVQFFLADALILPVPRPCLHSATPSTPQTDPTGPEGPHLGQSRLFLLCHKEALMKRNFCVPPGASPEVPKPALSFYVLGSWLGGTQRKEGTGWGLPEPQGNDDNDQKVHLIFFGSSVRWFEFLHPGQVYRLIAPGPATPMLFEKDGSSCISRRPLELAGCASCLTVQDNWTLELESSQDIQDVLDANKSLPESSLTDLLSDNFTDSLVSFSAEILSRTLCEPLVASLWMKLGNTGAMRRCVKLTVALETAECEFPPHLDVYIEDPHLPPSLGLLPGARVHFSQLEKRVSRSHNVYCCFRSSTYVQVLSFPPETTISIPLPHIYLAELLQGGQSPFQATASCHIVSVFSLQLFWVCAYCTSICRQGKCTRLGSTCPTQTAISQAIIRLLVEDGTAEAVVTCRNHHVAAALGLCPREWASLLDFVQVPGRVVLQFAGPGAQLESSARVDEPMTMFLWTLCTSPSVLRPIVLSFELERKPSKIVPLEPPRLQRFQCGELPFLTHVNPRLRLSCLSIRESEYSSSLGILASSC
T1 chain 2: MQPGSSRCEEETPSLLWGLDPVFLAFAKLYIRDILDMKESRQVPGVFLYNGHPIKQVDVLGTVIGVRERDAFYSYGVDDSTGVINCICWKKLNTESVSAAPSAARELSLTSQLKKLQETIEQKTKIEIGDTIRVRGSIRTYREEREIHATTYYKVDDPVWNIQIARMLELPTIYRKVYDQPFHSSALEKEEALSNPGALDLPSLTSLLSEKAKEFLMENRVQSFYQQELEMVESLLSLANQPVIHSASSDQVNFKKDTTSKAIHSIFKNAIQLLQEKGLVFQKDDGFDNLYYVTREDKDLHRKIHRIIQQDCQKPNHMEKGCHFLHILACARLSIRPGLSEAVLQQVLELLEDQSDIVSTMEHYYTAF
T1 chain 3: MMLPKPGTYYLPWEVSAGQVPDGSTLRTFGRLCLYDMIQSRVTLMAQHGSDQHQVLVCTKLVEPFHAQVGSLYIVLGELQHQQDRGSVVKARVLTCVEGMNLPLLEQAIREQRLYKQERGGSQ
The assay can be described thus: negative-stain EM. Conditions: remark: other sources report otherwise.

B1: CST (Ctc1/Stn1/Ten1), His6-MBP tag of Ctc1 cleaved off, Q2NKJ3 1-1217; Q9H668 1-368; Q86WV5 1-123 (complex)
chain 1: T1 chain 1
chain 2: T1 chain 2
chain 3: T1 chain 3
In general, stoichiometry N refers to a count of units in the complex or per binding partner. In the case of B1, the stoichiometry N was found to be 2.
